Assays:
[1] = target: LEDGF/p75 integrase binding domain, LEDGF(IBD) (human); test: SEC-MALS
[2] = target: HIV integrase N-terminal and catalytic core domains, IN(NTD-CCD)(F185K) (HIV); test: SEC-MALS
[3] = target: HIV integrase, full-length, IN(tetra) (C56S, F139D, F185H, C280S) (HIV); test: AUC
[4] = target: LEDGF/p75 integrase binding domain, LEDGF(IBD) (human); test: AUC
[5] = target: LEDGF/p75 C-terminal fragment, LEDGF(Cterm), residues 325-530 (human) (UniProt O75475); test: SEC-MALS
[6] = target: IN(tetra)·LEDGF(IBD) complex of two IN and one LEDGF(IBD), IN2LEDGF1 (HIV | human); test: AUC
[7] = target: T1, LEDGF/p75 C-terminal fragment, LEDGF(Cterm), residues 325-530 (human, UniProt O75475 325-530); test: SEC-MALS
T1 sequence: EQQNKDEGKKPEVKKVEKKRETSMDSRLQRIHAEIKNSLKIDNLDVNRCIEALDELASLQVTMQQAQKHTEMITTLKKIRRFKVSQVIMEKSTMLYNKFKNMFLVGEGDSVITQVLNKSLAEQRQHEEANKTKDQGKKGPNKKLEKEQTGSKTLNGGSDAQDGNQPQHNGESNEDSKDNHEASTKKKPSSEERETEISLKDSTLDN

“HIV integrase N-terminal and catalytic core domains, IN(NTD-CCD)(F185K) (domain or fragment)” was tested, and the stoichiometry N [1] was 1 IN:LEDGF and the stoichiometry N [2] was 2.

With “HIV integrase, full-length, IN(tetra) (C56S, F139D, F185H, C280S) (enzyme)” the stoichiometry N [1] was 2 IN:LEDGF, the Kd [3] was 9.3 µM and the stoichiometry N [4] was 2 IN:LEDGF.

With “HIV integrase, full-length, IN(tetra)(D116N) (enzyme)” the stoichiometry N [5] was 1 IN:LEDGF.

Work on “IN(tetra)·LEDGF(IBD) complex of two IN and one LEDGF(IBD), IN2LEDGF1” yielded a Kd [6] of 8.9 µM.

B1: HIV integrase, full-length, wild-type (enzyme)
chain: FLDGIDKAQEEHEKYHSNWRAMASDFNLPPVVAKEIVASCDKCQLKGEAMHGQVDCSPGIWQLDCTHLEGKVILVAVHVASGYIEAEVIPAETGQETAYFLLKLAGRWPVKTVHTDNGSNFTSTTVKAACWWAGIKQEFGIPYNPQSQGVIESMNKELKKIIGQVRDQAEHLKTAVQMAVFIHNFKRKGGIGGYSAGERIVDIIATDIQTKELQKQITKIQNFRVYYRDSRDPVWKGPAKLLWKGEGAVVIQDNSDIKVVPRRKAKIIRDYGKQMAGDDCVASRQDED
With B1 the “stoichiometry N” value [7] was 1 IN:LEDGF.

— paper PMC2888443 (The Journal of Biological Chemistry, 2010)
